{"source": "IntAct's records for PubMed 29892012", "parents": {"B1": {"name": "Coiled-coil alpha-helical rod protein 1 (Homo sapiens), Q8TD31 (parent)", "chain": "MFPPSGSTGLIPPSHFQARPLSTLPRMAPTWLSDIPLVQPPGHQDVSERRLDTQRPQVTMWERDVSSDRQEPGRRGRSWGLEGSQALSQQAEVIVRQLQELRRLEEEVRLLRETSLQQKMRLEAQAMELEALARAEKAGRAEAEGLRAALAGAEVVRKNLEEGSQRELEEVQRLHQEQLSSLTQAHEEALSSLTSKAEGLEKSLSSLETRRAGEAKELAEAQREAELLRKQLSKTQEDLEAQVTLVENLRKYVGEQVPSEVHSQTWELERQKLLETMQHLQEDRDSLHATAELLQVRVQSLTHILALQEEELTRKVQPSDSLEPEFTRKCQSLLNRWREKVFALMVQLKAQELEHSDSVKQLKGQVASLQEKVTSQSQEQAILQRSLQDKAAEVEVERMGAKGLQLELSRAQEARRRWQQQTASAEEQLRLVVNAVSSSQIWLETTMAKVEGAAAQLPSLNNRLSYAVRKVHTIRGLIARKLALAQLRQESCPLPPPVTDVSLELQQLREERNRLDAELQLSARLIQQEVGRAREQGEAERQQLSKVAQQLEQELQQTQESLASLGLQLEVARQGQQESTEEAASLRQELTQQQELYGQALQEKVAEVETRLREQLSDTERRLNEARREHAKAVVSLRQIQRRAAQEKERSQELRRLQEEARKEEGQRLARRLQELERDKNLMLATLQQEGLLSRYKQQRLLTVLPSLLDKKKSVVSSPRPPECSASAPVAAAVPTRESIKGSLSVLLDDLQDLSEAISKEEAVCQGDNLDRCSSSNPQMSS", "partner": "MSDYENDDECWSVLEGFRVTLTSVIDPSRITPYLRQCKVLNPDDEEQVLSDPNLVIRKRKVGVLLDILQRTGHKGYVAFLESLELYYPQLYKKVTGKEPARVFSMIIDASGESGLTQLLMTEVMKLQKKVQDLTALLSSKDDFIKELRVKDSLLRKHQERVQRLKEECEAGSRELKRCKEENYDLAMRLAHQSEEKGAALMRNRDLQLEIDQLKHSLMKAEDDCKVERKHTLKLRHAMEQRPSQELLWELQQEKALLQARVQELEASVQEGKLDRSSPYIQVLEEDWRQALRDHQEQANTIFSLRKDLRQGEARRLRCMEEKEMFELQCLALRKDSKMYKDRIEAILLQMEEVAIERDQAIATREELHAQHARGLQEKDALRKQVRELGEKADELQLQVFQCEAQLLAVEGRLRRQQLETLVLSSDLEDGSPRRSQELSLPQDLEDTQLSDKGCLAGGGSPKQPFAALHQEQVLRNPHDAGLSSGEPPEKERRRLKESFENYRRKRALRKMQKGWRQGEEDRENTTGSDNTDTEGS"}, "B2": {"name": "Centrosomal protein POC5 (Homo sapiens), Q8NA72 (parent)", "chain": "MSSDEEKYSLPVVQNDSSRGSSVSSNLQEEYEELLHYAIVTPNIEPCASQSSHPKGELVPDVRISTIHDILHSQGNNSEVRETAIEVGKGCDFHISSHSKTDESSPVLSPRKPSHPVMDFFSSHLLADSSSPATNSSHTDAHEILVSDFLVSDENLQKMENVLDLWSSGLKTNIISELSKWRLNFIDWHRMEMRKEKEKHAAHLKQLCNQINELKELQKTFEISIGRKDEVISSLSHAIGKQKEKIELMRTFFHWRIGHVRARQDVYEGKLADQYYQRTLLKKVWKVWRSVVQKQWKDVVERACQARAEEVCIQISNDYEAKVAMLSGALENAKAEIQRMQHEKEHFEDSMKKAFMRGVCALNLEAMTIFQNRNDAGIDSTNNKKEEYGPGVQGKEHSAHLDPSAPPMPLPVTSPLLPSPPAAVGGASATAVPSAASMTSTRAASASSVHVPVSALGAGSAATAASEEMYVPRVVTSAQQKAGRTITARITGRCDFASKNRISSSLAIMGVSPPMSSVVVEKHHPVTVQTIPQATAAKYPRTIHPESSTSASRSLGTRSAHTQSLTSVHSIKVVD", "partner": "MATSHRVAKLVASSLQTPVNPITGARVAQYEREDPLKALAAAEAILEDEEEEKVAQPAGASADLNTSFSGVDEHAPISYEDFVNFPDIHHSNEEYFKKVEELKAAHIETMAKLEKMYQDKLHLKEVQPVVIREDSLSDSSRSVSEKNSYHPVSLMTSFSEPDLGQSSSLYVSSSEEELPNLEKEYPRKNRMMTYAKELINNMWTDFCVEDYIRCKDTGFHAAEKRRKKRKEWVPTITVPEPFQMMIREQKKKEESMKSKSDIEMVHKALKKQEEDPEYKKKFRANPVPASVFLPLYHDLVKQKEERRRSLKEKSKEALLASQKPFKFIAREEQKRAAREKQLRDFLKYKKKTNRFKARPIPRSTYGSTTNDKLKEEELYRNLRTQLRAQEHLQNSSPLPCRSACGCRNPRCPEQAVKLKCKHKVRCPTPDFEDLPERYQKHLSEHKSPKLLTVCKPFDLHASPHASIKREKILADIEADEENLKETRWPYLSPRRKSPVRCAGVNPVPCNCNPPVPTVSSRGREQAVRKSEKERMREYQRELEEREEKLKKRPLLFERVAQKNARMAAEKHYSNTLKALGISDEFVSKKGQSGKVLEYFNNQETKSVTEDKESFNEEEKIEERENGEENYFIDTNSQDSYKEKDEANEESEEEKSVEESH"}, "B3": {"name": "Glutaredoxin-3 (Homo sapiens), O76003 (parent)", "chain": "MAAGAAEAAVAAVEEVGSAGQFEELLRLKAKSLLVVHFWAPWAPQCAQMNEVMAELAKELPQVSFVKLEAEGVPEVSEKYEISSVPTFLFFKNSQKIDRLDGAHAPELTKKVQRHASSGSFLPSANEHLKEDLNLRLKKLTHAAPCMLFMKGTPQEPRCGFSKQMVEILHKHNIQFSSFDIFSDEEVRQGLKAYSSWPTYPQLYVSGELIGGLDIIKELEASEELDTICPKAPKLEERLKVLTNKASVMLFMKGNKQEAKCGFSKQILEILNSTGVEYETFDILEDEEVRQGLKAYSNWPTYPQLYVKGELVGGLDIVKELKENGELLPILRGEN", "partner": "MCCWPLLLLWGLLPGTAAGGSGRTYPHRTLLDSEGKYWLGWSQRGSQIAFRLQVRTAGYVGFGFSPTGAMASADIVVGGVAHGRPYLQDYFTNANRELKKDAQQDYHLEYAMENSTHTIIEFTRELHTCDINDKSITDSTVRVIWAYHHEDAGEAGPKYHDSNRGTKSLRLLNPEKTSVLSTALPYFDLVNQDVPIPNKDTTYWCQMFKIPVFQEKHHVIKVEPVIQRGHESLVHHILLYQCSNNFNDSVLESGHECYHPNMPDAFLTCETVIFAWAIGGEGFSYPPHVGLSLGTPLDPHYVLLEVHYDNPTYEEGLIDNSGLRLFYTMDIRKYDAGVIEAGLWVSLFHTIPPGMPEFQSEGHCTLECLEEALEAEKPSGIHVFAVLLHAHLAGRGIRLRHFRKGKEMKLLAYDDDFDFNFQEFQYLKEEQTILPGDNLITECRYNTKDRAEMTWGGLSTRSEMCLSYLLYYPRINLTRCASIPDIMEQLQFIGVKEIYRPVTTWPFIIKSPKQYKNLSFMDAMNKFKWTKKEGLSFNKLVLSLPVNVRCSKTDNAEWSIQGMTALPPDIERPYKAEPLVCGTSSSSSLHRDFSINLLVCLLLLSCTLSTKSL"}, "B4": {"name": "E3 ubiquitin-protein ligase LNX (Homo sapiens), Q8TBB1 (parent)", "chain": "MNQPESANDPEPLCAVCGQAHSLEENHFYSYPEEVDDDLICHICLQALLDPLDTPCGHTYCTLCLTNFLVEKDFCPMDRKPLVLQHCKKSSILVNKLLNKLLVTCPFREHCTQVLQRCDLEHHFQTSCKGASHYGLTKDRKRRSQDGCPDGCASLTATAPSPEVSAAATISLMTDEPGLDNPAYVSSAEDGQPAISPVDSGRSNRTRARPFERSTIRSRSFKKINRALSVLRRTKSGSAVANHADQGRENSENTTAPEVFPRLYHLIPDGEITSIKINRVDPSESLSIRLVGGSETPLVHIIIQHIYRDGVIARDGRLLPGDIILKVNGMDISNVPHNYAVRLLRQPCQVLWLTVMREQKFRSRNNGQAPDAYRPRDDSFHVILNKSSPEEQLGIKLVRKVDEPGVFIFNVLDGGVAYRHGQLEENDRVLAINGHDLRYGSPESAAHLIQASERRVHLVVSRQVRQRSPDIFQEAGWNSNGSWSPGPGERSNTPKPLHPTITCHEKVVNIQKDPGESLGMTVAGGASHREWDLPIYVISVEPGGVISRDGRIKTGDILLNVDGVELTEVSRSEAVALLKRTSSSIVLKALEVKEYEPQEDCSSPAALDSNHNMAPPSDWSPSWVMWLELPRCLYNCKDIVLRRNTAGSLGFCIVGGYEEYNGNKPFFIKSIVEGTPAYNDGRIRCGDILLAVNGRSTSGMIHACLARLLKELKGRITLTIVSWPGTFL", "partner": "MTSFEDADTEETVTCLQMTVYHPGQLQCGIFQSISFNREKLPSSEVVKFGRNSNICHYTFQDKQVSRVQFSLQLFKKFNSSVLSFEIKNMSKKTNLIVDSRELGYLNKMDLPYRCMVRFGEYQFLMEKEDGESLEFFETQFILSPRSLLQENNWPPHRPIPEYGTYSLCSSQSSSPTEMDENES"}, "B5": {"name": "Myotubularin-related protein 9 (Homo sapiens), Q96QG7 (parent)", "chain": "MEFAELIKTPRVDNVVLHRPFYPAVEGTLCLTGHHLILSSRQDNTEELWLLHSNIDAIDKRFVGSLGTIIIKCKDFRIIQLDIPGMEECLNIASSIEALSTLDSITLMYPFFYRPMFEVIEDGWHSFLPEQEFELYSSATSEWRLSYVNKEFAVCPSYPPIVTVPKSIDDEALRKVATFRHGGRFPVLSYYHKKNGMVIMRSGQPLTGTNGRRCKEDEKLINATLRAGKRGYIIDTRSLNVAQQTRAKGGGFEQEAHYPQWRRIHKSIERYHILQESLIKLVEACNDQTHNMDRWLSKLEASNWLTHIKEILTTACLAAQCIDREGASILIHGTEGTDSTLQVTSLAQIILEPRSRTIRGFEALIEREWLQAGHPFQQRCAQSAYCNTKQKWEAPVFLLFLDCVWQILRQFPCSFEFNENFLIMLFEHAYASQFGTFLGNNESERCKLKLQQKTMSLWSWVNQPSELSKFTNPLFEANNLVIWPSVAPQSLPLWEGIFLRWNRSSKYLDEAYEEMVNIIEYNKELQAKVNILRRQLAELETEDGMQESP", "partner": "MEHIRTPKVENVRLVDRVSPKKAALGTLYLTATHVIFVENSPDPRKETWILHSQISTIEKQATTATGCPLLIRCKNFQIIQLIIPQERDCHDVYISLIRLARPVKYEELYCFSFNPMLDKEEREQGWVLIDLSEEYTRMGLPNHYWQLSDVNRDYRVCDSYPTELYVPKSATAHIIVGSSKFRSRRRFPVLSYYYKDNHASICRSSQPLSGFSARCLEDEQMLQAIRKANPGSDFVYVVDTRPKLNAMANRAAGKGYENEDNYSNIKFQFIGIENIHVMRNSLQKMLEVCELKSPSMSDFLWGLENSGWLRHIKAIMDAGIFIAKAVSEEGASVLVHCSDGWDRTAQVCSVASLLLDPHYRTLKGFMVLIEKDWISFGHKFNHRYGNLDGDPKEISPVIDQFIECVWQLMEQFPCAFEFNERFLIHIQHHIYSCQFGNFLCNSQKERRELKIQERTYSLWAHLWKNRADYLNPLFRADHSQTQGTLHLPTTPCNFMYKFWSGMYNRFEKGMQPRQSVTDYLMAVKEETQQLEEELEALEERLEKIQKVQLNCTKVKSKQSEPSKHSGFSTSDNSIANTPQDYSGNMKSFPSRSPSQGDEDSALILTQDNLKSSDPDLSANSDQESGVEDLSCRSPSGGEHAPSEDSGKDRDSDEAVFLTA"}}, "data": [{"variants_of": "B1", "settings": "with card9_human CARD9, Q9H257", "values": [{"variant": "W337R", "effect of a mutation on the interaction": "disrupting interaction strength"}]}, {"variants_of": "B2", "settings": "with FAM161A", "values": [{"variant": "M469T", "effect of a mutation on the interaction": "with no effect"}]}, {"variants_of": "B3", "settings": "with moxd1_human MOXD1, Q6UVY6", "values": [{"variant": "P145A", "effect of a mutation on the interaction": "with no effect"}]}, {"variants_of": "B4", "settings": "with tifa_human TIFA", "values": [{"variant": "E295K", "effect of a mutation on the interaction": "disrupting interaction strength"}]}, {"variants_of": "B5", "settings": "with mtmr7_human MTMR7, Q9Y216", "values": [{"variant": "R359S", "effect of a mutation on the interaction": "with no effect"}]}]}
